In US20050055741, “Plant transcriptional repressor, proteic nuclear factors binding thereto, and uses thereof” (published 2005):

Key:
[1] = target: T1, SEBF (recombinant) (Solanum tuberosum); test: EMSA; specificity stated similar to native SEBF; settings: tags: GST fusion expressed in E. coli BL21; GST cleaved with thrombin; label: 32P
T1 chain: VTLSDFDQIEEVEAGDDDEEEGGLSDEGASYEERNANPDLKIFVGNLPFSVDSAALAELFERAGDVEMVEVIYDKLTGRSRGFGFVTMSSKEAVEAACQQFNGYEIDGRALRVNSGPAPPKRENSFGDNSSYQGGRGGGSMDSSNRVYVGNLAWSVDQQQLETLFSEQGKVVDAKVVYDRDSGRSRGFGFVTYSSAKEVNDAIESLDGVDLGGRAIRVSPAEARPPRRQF
Text: (§1) FIGS. 2A, 2B, 2C and 2D show mutational analysis of potato silencing element (SE). FIG. 2A: Schematic representation of the reporter constructs and mutant oligonucleotides used in this study. Reporter constructs contain the PR-10a promoter region from −135 to +136 fused to the bacterial gene uidA encoding […] (GUS). The position of the elicitor response element (ERE), the silencing element (SE) and the TATA box are shown (TATA). The transcriptional start site is indicated by an arrow. The common sequence between the wild-type (WT; SEQ ID NO:45) and mutant oligonucleotides m1 to m5 (SEQ ID NOs:1 to 5) is indicated by dashed lines, and mutated nucleotides are represented by lowercase letters. FIG. 2B: EMSA studies using 10 μg of crude potato tuber nuclear preparation and 20,000 CPM of the ³²P labeled single-stranded CS oligonucleotides presented in FIG. 2A. FIG. 2C: EMSA studies using 10 ng of purified recombinant SEBF and 20,000 CPM of the ³²P labeled single-stranded CS oligonucleotides presented in FIG. 2A. FIG. 2D: The sequence from −52 to −27 of the PR-10a promoter fused to the uidA gene was replaced by the sequences presented in FIG. 2A. The resulting plasmids were electroporated in potato leaf protoplasts and the GUS activity was measured. The histogram represents fold activity to wild type (WT=1). […]

[2] = target: T2, SEBF (affinity purified, 29 and 28 kD bands) (Solanum tuberosum); test: southwestern; 29 and 28 kD bands each bind; settings: tags: none; label: 32P
T2 chain: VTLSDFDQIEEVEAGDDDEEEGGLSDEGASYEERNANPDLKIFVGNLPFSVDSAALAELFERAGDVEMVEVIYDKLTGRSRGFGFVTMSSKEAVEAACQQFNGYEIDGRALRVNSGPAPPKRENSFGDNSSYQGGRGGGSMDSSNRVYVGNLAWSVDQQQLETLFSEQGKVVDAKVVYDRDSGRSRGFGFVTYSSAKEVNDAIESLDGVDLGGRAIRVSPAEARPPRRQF
Method: FIG. 4 is a picture of a gel showing the purification of SEBF. Coomassie staining of proteins from each step of the purification of SEBF (lanes 1 through 4). The crude nuclear extract (Crude; lane 1) was loaded on a Q-Sepharose™ column. SEBF was eluted at 400 mM NaCl (Q-seph; lane 2) before two rounds of affinity purification (Aff.1, Aff.2; lane 3, lane 4). […] Arrows indicate the two purified bands. Molecular weight markers are indicated on the left.
Both of these proteins were subjected to N-terminal sequence analysis.

[3] = target: T1, SEBF (recombinant); test: EMSA; 10 ng recombinant SEBF; settings: tags: GST fusion expressed in E. coli BL21; GST cleaved with thrombin; label: 32P
Text: as §1

[4] = target: T1, SEBF (recombinant); test: EMSA; specificity similar to native SEBF; settings: tags: GST fusion expressed in E. coli BL21; GST cleaved with thrombin; label: 32P
Text: as §1

B1: SE m2 (ssDNA)
DNA: CATGGACTGTCACTTGTTTTTTTTA
[1]
  binding result: binds

B2: PR-10a SE coding strand WT (ssDNA)
DNA: TCTAGACTGTCACTTGTTTTTTTTA
[2]
  binding result: binds
[3]
  binding result: binds

B3: SE m1 (ssDNA)
DNA: TCTAGATCGAATTCCGCTCGACCGG
[4]
  binding result: no binding
